From patent US5919635A (ZymoGenetics, Inc., priority 1995, dated 1999)

Assays:
[1] = target: rat glucagon receptor (pLJ4 transfectants) (Rattus norvegicus, UniProt P30082); test: Intracellular calcium response (fura-2 imaging) of pLJ4 BHK transfectants; format: cell-based; details: 100 nM final glucagon; resting value approximately 150 nM; from calibration experiments
Method: E. Intracellular Calcium Concentration Determination
Plasmid pLJ4 BHK transfectants seeded into 2 well coverglass chambers (NUNC) at 5×10^4 cells per chamber. The cells were grown for between one and three days under normal culture conditions in methotrexate selection medium. The medium was removed by aspiration, and the chambers were rinsed twice with 1 ml Imaging Buffer (Table 3). The cells were incubated for 30 minutes in the dark at room temperature with 0.5 ml of Fura-2 AM Solution (Table 3). After incubation, the Fura-2 AM Solution was removed, and the cells were rinsed with 1 ml Imaging Buffer three times. After the final rinse, 0.5 ml of buffer was left in each chamber. […]
Imaging was performed on a Nikon Diaphot inverted fluorescence microscope equipped with a mercury arc lamp and 10× and 40× Nikon Fluor dry objective lenses. Experiments were controlled and analysed using a Sun SPARC II workstation and Inovision (Research Triangle Park, N.C.) RATIOTOOL software. […] Emission images were directed by a dichroic mirror (380 nm cutoff) to a Dage-MTI 72 CCD camera equipped with a Genesis II image intensifier and digitally recorded by the software.
Intracellular calcium concentration was monitored by calculating a ratio of emission intensities at each of the two excitation wavelenths (340/380) for each pixel of the digital microscopic image field (512×480 pixels). […]

[2] = tested on: Human Glucagon Receptor (pLJ6') in COS 7 cells; test: In situ ^125 I-glucagon binding with emulsion autoradiography, pLJ6'-transfected COS 7 cells; details: 72 hours after transfection
Method: To prepare the transfectants for the ^125 I-glucagon binding assay, the spent media were aspirated from the cells, and the cells were washed three times with cold (4° C.) PBS. After the final wash, the cells were covered with Binding Media (Table 2) and incubated for ten minutes at room temperature. The media were replaced with 0.5 ml of Binding Media containing 0.5 nM ^125 I-glucagon (Amersham receptor grade, specific activity 2000 Ci/mmole; Amersham). The cells were then rocked at 30° C. for one hour. […] The media were aspirated from the cells, and the cells were washed three times with cold (4° C.) PBS. After the final wash, the cells were fixed with 1 ml of 2.5% glutaraldehyde in PBS at room temperature for 20 minutes. The glutaraldehyde was removed, and the cells were rinsed three time with PBS. The slides were air dried for one hour at room temperature, dipped in liquid photographic emulsion (Eastman Kodak Co., Rochester, N.Y.) according the manufacturer's directions, and dried at room temperature in the dark for at least 30 minutes. The slides were then plated in a light-proof box for 72 hours at 4° C.
Plasmid pLJ6' was transfected into COS 7 cells using a DEAE-dextran procedure described above. The cells were grown on glass chamber slides (as described in Example 3) for 72 hours after transfection.

rat glucagon receptor (pLJ4 transfectants), sequence (P30082 27-485): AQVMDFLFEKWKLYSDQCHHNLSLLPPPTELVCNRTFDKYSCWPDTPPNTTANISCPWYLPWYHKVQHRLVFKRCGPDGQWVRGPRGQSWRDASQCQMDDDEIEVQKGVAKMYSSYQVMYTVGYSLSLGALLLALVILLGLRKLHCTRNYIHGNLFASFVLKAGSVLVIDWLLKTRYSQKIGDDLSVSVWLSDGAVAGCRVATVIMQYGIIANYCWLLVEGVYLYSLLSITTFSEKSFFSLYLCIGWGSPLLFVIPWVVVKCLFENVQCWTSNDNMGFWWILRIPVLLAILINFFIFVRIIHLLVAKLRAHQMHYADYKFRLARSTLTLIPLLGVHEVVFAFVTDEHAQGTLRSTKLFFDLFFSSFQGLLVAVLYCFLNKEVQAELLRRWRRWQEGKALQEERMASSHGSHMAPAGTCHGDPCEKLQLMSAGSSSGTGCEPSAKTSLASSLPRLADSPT

## glucagon: 29 amino acid hormone produced by the alpha cells of pancreatic islets; human glucagon (Sigma)
[1]
  peak intracellular calcium concentration: approximately 400 nM
[2]
  cells transfected with pLJ6' that bound glucagon in a specific fashion: Greater than 50%
